± gives the standard deviation of the averaged measurements.
Assay: total protein half-life in vivo (active degradation + dilution); higher = more stable protein
[1] = E. coli NCM3722 delta-clpP delta-lon delta-hslV, growth: N-lim chemostat, doubling time 6 h
[2] = E. coli NCM3722 delta-clpP, growth: N-lim chemostat, doubling time 6 h
[3] = E. coli NCM3722 delta-hslV, growth: N-lim chemostat, doubling time 6 h
[4] = E. coli NCM3722 delta-smpB, growth: N-lim chemostat, doubling time 6 h
[5] = wild type E. coli NCM3722, growth: C-lim chemostat, doubling time 3 h
[6] = wild type E. coli NCM3722, growth: C-lim chemostat, doubling time 6 h
[7] = wild type E. coli NCM3722, growth: C-lim chemostat, doubling time 12 h
[8] = wild type E. coli NCM3722, growth: N-lim chemostat, doubling time 6 h
[9] = wild type E. coli NCM3722, growth: N-lim chemostat, doubling time 12 h
[10] = wild type E. coli NCM3722, growth: P-lim chemostat, doubling time 6 h
[11] = wild type E. coli NCM3722, growth: P-lim chemostat, doubling time 12 h
[12] = E. coli NCM3722 delta-lon, growth: N-lim chemostat, doubling time 6 h

Sequence | total protein half-life in vivo [1] [h] | total protein half-life in vivo [2] [h] | total protein half-life in vivo [3] [h] | total protein half-life in vivo [4] [h] | total protein half-life in vivo [5] [h] | total protein half-life in vivo [6] [h] | total protein half-life in vivo [7] [h] | total protein half-life in vivo [8] [h] | total protein half-life in vivo [9] [h] | total protein half-life in vivo [10] [h] | total protein half-life in vivo [11] [h] | total protein half-life in vivo [12] [h]
MLSAFQLENNRLTRLEVEESQPLVNAVWIDLVEPDDDERLRVQSELGQSLATRPELEDIEASARFFEDDDGLHIHSFFFFEDAEDHAGNSTVAFTIRDGRLFTLRERELPAFRLYRMRARSQSMVDGNAYELLLDLFETKIEQLADEIENIYSDLEQLSRVIMEGHQGDEYDEALSTLAELEDIGWKVRLCLMDTQRALNFLVRKARLPGGQLEQAREILRDIESLLPHNESLFQKVNFLMQAAMGFINIEQNRIIKIFSVVSVVFLPPTLVASSYGMNFEFMPELKWSFGYPGAIIFMILAGLAPYLYFKRKNWL [P0ABI4] | 5.99 ± 0.074 | 6.305 ± 0.044 | 5.99 ± 0.58 | 6.4 ± 0.16 | 3 ± 0.35 | 6.15 ± 0.071 | 11.8 ± 0.14 | 6.07 ± 0.69 | 11.7 ± 2 | 5.62 ± 0.18 | 12.6 ± 0.23 | –
MLSFLWDLASFIVALGVLITVHEFGHFWVARRCGVRVERFSIGFGKALWRRTDKLGTEYVIALIPLGGYVKMLDERAEPVVPELRHHAFNNKSVGQRAAIIAAGPVANFIFAIFAYWLVFIIGVPGVRPVVGEIAANSIAAEAQIAPGTELKAVDGIETPDWDAVRLQLVDKIGDESTTITVAPFGSDQRRDVKLDLRHWAFEPDKEDPVSSLGIRPRGPQIEPVLENVQPNSAASKAGLQAGDRIVKVDGQPLTQWVTFVMLVRDNPGKSLALEIERQGSPLSLTLIPESKPGNGKAIGFVGIEPKVIPLPDEYKVVRQYGPFNAIVEATDKTWQLMKLTVSMLGKLITGDVKLNNLSGPISIAKGAGMTAELGVVYYLPFLALISVNLGIINLFPLPVLDGGHLLFLAIEKIKGGPVSERVQDFCYRIGSILLVLLMGLALFNDFSRL [P0AEH1] | 5.38 ± 0.54 | 4.76 ± 0.25 | 4.25 ± 0.049 | 4.624 ± 0.034 | 2.69 ± 0.22 | 4.23 ± 0.79 | 7.59 ± 0.17 | 4.2 ± 0.15 | 7.28 ± 0.63 | 4.17 ± 0.6 | 6.21 ± 0.8 | 5.088 ± 0.044
MLSGKDLGRAIEQAINKKIASGSVKSKAEVARHFKVQPPSIYDWIKKGSISKDKLPELWRFFSDVVGPEHWGLNEYPIPTPTNSDTKSELLDINNLYQAASDEIRAIVAFLLSGNATEPDWVDHDVRAYIAAMEMKVGKYLKALESERKSQNITKTGT | – | 4.75 | 5.53 ± 0.81 | 5.32 | – | 5.48 | 9.89 | 4.71 | 8.69 | 5.35 | 10.4 ± 2 | 7.1
MLSIFKPAPHKARLPAAEIDPTYRRLRWQIFLGIFFGYAAYYLVRKNFALAMPYLVEQGFSRGDLGFALSGISIAYGFSKFIMGSVSDRSNPRVFLPAGLILAAAVMLFMGFVPWATSSIAVMFVLLFLCGWFQGMGWPPCGRTMVHWWSQKERGGIVSVWNCAHNVGGGIPPLLFLLGMAWFNDWHAALYMPAFCAILVALFAFAMMRDTPQSCGLPPIEEYKNDYPDDYNEKAEQELTAKQIFMQYVLPNKLLWYIAIANVFVYLLRYGILDWSPTYLKEVKHFALDKSSWAYFLYEYAGIPGTLLCGWMSDKVFRGNRGATGVFFMTLVTIATIVYWMNPAGNPTVDMICMIVIGFLIYGPVMLIGLHALELAPKKAAGTAAGFTGLFGYLGGSVAASAIVGYTVDFFGWDGGFMVMIGGSILAVILLIVVMIGEKRRHEQLLQERNGG | – | – | – | – | – | 6.02 ± 0.41 | 11.8 ± 1.2 | – | – | – | – | –
MLSLYEKIKIRLIILFLLAALSFIGLFFIINYQLVSERAVKRADSRFELIQKNVGYFFKDIERSALTLKDSLYLLKNTEEIQRAVILKMEMMPFLDSVGLVLDDNKYYLFSRRANDKIVVYHQEQVNGPLVDESGRVIFADFNPSKRPWSVASDDSNNSWNPAYNCFDRPGKKCISFTLHINGKDHDLLAVDKIHVDLNWRYLNEYLDQISANDEVLFLKQGHEIIAKNQLAREKLIIYNSEGNYNIIDSVDTEYIEKTSAVPNNALFEIYFYYPGGNLLNASDKLFYLPFAFIIIVLLVVYLMTTRVFRRQFSEMTELVNTLAFLPDSTDQIEALKIREGDAKEIISIKNSIAEMKDAEIERSNKLLSLISYDQESGFIKNMAIIESNNNQYLAVGIIKLCGLEAVEAVFGVDERNKIVRKLCQRIAEKYAQCCDIVTFNADLYLLLCRENVQTFTRKIAMVNDFDSSFGYRNLRIHKSAICEPLQGENAWSYAEKLKLAISSIRDHMFSEFIFCDDAKLNEIEENIWIARNIRHAMEIGELFLVYQPIVDINTRAILGAEALCRWVSAERGIISPLKFITIAEDIGFINELGYQIIKTAMGEFRHFSQRASLKDDFLLHINVSPWQLNEPHFHERFTTIMKENGLKANSLCVEITETVIERINEHFYLNIEQLRKQGVRISIDDFGTGLSNLKRFYEINPDSIKVDSQFTGDIFGTAGKIVRIIFDLARYNRIPVIAEGVESEDVARELIKLGCVQAQGYLYQKPMPFSAWDKSGKLVKE | 5.7 ± 1.7 | 7.04 ± 0.45 | – | 6.334 ± 0.039 | 3 ± 0.23 | 5.9 ± 0.19 | – | 5.88 ± 0.38 | 12.8 ± 1.2 | 6.03 ± 0.13 | 11.8 ± 1 | 6.67 ± 0.23
MLSNDILRSVRYILKANNNDLVRILALGNVEATAEQIAVWLRKEDEEGFQRCPDIVLSSFLNGLIYEKRGKDESAPALEPERRINNNIVLKKLRIAFSLKTDDILAILTEQQFRVSMPEITAMMRAPDHKNFRECGDQFLRYFLRGLAARQHVKKG | 5.25 ± 0.12 | – | – | 5.21 ± 0.48 | 3.21 ± 0.69 | 6.3 ± 0.61 | 11.7 ± 1 | 5.08 ± 0.49 | 8.7 ± 0.92 | 4.99 ± 0.15 | – | 6.64 ± 0.089
